# Laboratory results from patent publication US20070298043A1 (RAMOT AT TEL AVIV UNIVERSITY, published 2007).
# B1: YefM13-25 peptide (peptide)
# peptide: ISYSEARQNLSAT
# notes: It follows from 'YefM11-23-YefM15-27', three tridecamers with a shift of two amino acids; also called second of the three tridecamers YefM11-23-YefM15-27
# B2: 10-22 (peptide)
# peptide: MRTISYSEARQNL
# notes: Cell not labelled; also called YefM10-22 peptide
# B3: 12-24 (peptide)
# peptide: TISYSEARQNLSA
# notes: Cell not labelled; also called YefM12-24 peptide
# Key:
# GST-YoeB fusion protein [1] = target: T1, GST-YoeB fusion protein (Escherichia coli, UniProt P69348 1-84); assay: peptide array on cellulose membrane, low stringency, GST-YoeB probe, anti-GST antibody and chemiluminescence
# T1 construct: also called YoeB-GST; GST-YoeB fusion polypeptide; not shown: glutathione S-transferase (GST) fusion partner encoded by the pET42a expression vector (Novagen); vector-encoded linker of pET42a between GST and the EcoRI cloning site; not described
# T1 sequence: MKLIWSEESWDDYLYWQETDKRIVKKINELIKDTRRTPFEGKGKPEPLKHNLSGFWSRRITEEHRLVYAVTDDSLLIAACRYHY
# GST-YoeB fusion protein [2] = target: T1, GST-YoeB fusion protein; assay: peptide array on cellulose membrane, single-residue shift, high stringency, GST-YoeB probe, anti-GST antibody and chemiluminescence
# Experimental: (§1) Following incubation, the membrane was washed once in TBS-T then supplemented with 10 ml suspension comprising TBS, mouse anti-GST antibody and horseradish peroxidase conjugated goat anti-mouse antibody in the appropriate titers. Following 1 hour incubation at room temperature the membrane was briefly washed with TBS-T and TBS.
# GST-YoeB fusion protein [3] = target: T1, GST-YoeB fusion protein; assay: peptide array, low stringency
# GST-YoeB fusion protein [4] = target: T1, GST-YoeB fusion protein; assay: peptide array of single-replacement analogs
# Experimental: as §1
# GST-YoeB fusion protein [5] = target: T1, GST-YoeB fusion protein; assay: peptide array on cellulose membrane, anti-GST detection
# Experimental: as §1
binder,measurement,setting,value
B1,binding result,GST-YoeB fusion protein [1],binds
YSEARQNLSATMM [YefM15-27 peptide],binding result,GST-YoeB fusion protein [1],binds
B2,binding result,GST-YoeB fusion protein [2],binds
B3,binding result,GST-YoeB fusion protein [2],binds
DSIDSLKSGKGTE [YefM75-87 peptide],binding result,GST-YoeB fusion protein [3],binds
RTISYSEARQNAS (Position 22 counts on whole YefM) [YefM11-23 analog with leucine 22 replaced by alanine],binding result,GST-YoeB fusion protein [4],binds
RTISYSEARQNGS (Position 22 counts on whole YefM) [YefM11-23 analog with leucine 22 replaced by glycine],binding result,GST-YoeB fusion protein [4],binds
RTISYSEAAQNLS (Arrayed on a cellulose membrane) [YefM11-23 analog with arginine 19 replaced by alanine],binding result,GST-YoeB fusion protein [5],no binding
RTISYSEAGQNLS (Arrayed on a cellulose membrane) [YefM11-23 analog with arginine 19 replaced by glycine],binding result,GST-YoeB fusion protein [5],no binding
